Assay results published in patent publication US20230391888A1 (Sanofi, published 2023).
Residue numbers refer to the chain shown, from its start.

Experiments:
[1] = target: T1, human IL13 (IL012, Millipore) (human, UniProt P35225 35-146); assay: SPR, BIAcore 3000; antibody captured by anti-human Fc, antigen as analyte
Experimental: (§1) Surface plasmon resonance (SPR) was used to assess the binding of antigens to antibody. Binding of antigens to the antibody constructs was measured using surface plasmon resonance (SPR) with a BIAcore 3000 instrument (GE Healthcare) with HBS-EP buffer (GE Healthcare). Human IL4 (IL004, Millipore) and human IL13 (IL012, Millipore), human HER2 (1129-ER, R&D Systems), human TNFa (H8916, SIGMA Aldrich), human CTLA4 (CT4-H5229, ACRO Biosystems), human PD-1 (8986-PD, R&D Systems), and human IL6Ra (227-SR/CF, R&D Systems) were used as antigens. The anti-human Fc capture antibody (human antibody capture kit, GE Life Sciences) was immobilized via primary amine groups (11000 RU) on a research grade CM5 chip (GE Life Sciences) using standard procedures. […] Binding tests with HER2 was performed by capture of the antigen with the anti-human Fc antibody. The tested antibody constructs were used as analytes and injected at 100 nM concentration for 240 sec with a dissociation time of 300 sec at a flow rate of 30 μL/min. Binding kinetics measurements were done using the captured antibodies with injects of two-fold serial dilutions of the analytes of 3 nM to 100 nM. […] Chip surfaces were regenerated with 2 min injects of the regeneration buffer provided with the capture kit. Sensorgrams were double referenced with a blank chip surface and HBS-EP buffer blanks. Data analysis was performed using the BIAevaluation software v4.1.

[2] = target: T1, human IL13 (IL012, Millipore); assay: SPR, BIAcore 3000; antibody captured by anti-human Fc, antigen as analyte; column head says nM, but kd/ka gives M
Experimental: as §1

[3] = target: T2, human CD123-Fc-His fusion protein (internal source) (human, UniProt P26951 19-305); assay: SPR, Biacore 8K; CD123-Fc-His captured by anti-His, antibody as analyte, 1:1 Langmuir fit
T2 construct: not shown: Fc and His tag
T2 sequence (looked up): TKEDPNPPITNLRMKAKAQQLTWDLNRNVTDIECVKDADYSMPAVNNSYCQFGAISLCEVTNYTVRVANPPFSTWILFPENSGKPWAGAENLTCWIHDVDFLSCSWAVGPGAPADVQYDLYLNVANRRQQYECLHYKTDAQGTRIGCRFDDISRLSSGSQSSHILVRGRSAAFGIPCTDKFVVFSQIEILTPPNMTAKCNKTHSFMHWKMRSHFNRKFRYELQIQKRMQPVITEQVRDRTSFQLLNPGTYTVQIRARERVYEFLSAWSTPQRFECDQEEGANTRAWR
Experimental: Binding of antigens to the antibody constructs was measured using surface plasmon resonance (SPR) with a BIAcore 8K instrument (GE Healthcare) with HBS-EP+ buffer (GE Healthcare). For binding kinetics and affinity determination human CD3εδ-Fc-His and human CD123-Fc-His fusion proteins (both from internal source) were used as antigens. The anti-His capture antibody (His capture kit, GE Life Sciences) was immobilized via primary amine groups (11000 RU) on a research grade CM5 chip (GE Life Sciences) using standard procedures. Antigens were captured by the anti-His capture chip surface at a flow rate of 10 μL/min for 90 sec to reach antibody binding levels between 10 and 30 RU. […] Dissociation was measured at 30 μL/min by injection of HBS-EP+ buffer for 1200 sec. The chip surface was regenerated by inject of regeneration buffer (His capture kit, GE Life Sciences). Sensorgrams were double referenced with a blank chip surface and H BS-EP+ buffer blanks. Data were fitted with a 1:1 Langmuir binding model for determination of kinetic and affinity constants ka, kd and KD using Biacore 8K Evaluation software v1.11.7442 (GE Healthcare).

[4] = target: CD123 on THP-1 target cells (UniProt P26951 19-378, limits assumed); assay: cell-based or functional assay
[5] = target: T3, human HER2 (1129-ER, R&D Systems) (human, UniProt P04626 23-652); assay: SPR; HER2 captured with the anti-human Fc antibody, antibody constructs as analytes (method in paragraph 368); FIG. 5A-5B
T3 construct: also called Receptor tyrosine-protein kinase erbB-2
Experimental: as §1

[6] = target: T3, human HER2 (1129-ER, R&D Systems); assay: SPR (BIAcore 3000), binding test with HER2 captured by the anti-human Fc antibody, constructs injected at 100 nM; response as % of theoretical Rmax
[7] = target: T1, human IL13 (IL012, Millipore); assay: SPR, BIAcore 3000; antibody captured by anti-human Fc, antigen as analyte; the mark X is not explained
Experimental: as §1, with “Data analysis was performed using the BIAevaluation software v4.1.” left out

[8] = target: T4, human PD-1 (8986-PD, R&D Systems) (human, UniProt Q15116 25-167); assay: SPR, BIAcore 3000; antibody captured by anti-human Fc, antigen as analyte
T4 sequence (Q15116 25-167 limits assumed): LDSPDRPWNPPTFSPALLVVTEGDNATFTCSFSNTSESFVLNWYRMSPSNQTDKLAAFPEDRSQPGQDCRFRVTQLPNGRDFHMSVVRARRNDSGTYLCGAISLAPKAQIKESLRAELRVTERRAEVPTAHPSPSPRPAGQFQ
Experimental: as §1

[9] = target: T4, human PD-1 (8986-PD, R&D Systems); assay: SPR, BIAcore 3000; antibody captured by anti-human Fc, antigen as analyte; column head says nM, but kd/ka gives M
Experimental: as §1

[10] = target: T5, Human IL4 (IL004, Millipore) (human, UniProt P05112 25-153); assay: SPR, BIAcore 3000; antibody captured by anti-human Fc, antigen as analyte
T5 sequence (looked up): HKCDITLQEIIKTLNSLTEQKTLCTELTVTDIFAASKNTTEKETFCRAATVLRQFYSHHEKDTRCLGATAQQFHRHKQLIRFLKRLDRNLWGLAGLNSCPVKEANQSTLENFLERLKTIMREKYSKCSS
Experimental: as §1

[11] = target: T5, Human IL4 (IL004, Millipore); assay: SPR, BIAcore 3000; antibody captured by anti-human Fc, antigen as analyte; column head says nM, but kd/ka gives M
Experimental: as §1

T1 sequence (P35225 35-146 limits assumed): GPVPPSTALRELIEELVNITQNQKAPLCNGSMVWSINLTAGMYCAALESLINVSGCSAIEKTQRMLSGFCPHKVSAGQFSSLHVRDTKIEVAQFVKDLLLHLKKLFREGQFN

B1: IL13 mAb (ID 3, anti-IL13-VL3-IGKC / anti-IL13-VH2-IGHG1) (antibody, human IgG1, kappa, V domains shown)
VH: EVQLKESGPGLVAPGGSLSITCTVSGFSLTDSSINWVRQPPGKGLEWLGMIWGDGRIDYADALKSRLSISKDSSKSQVFLEMTSLRTDDTATYYCARDGYFPYAMDFWGQGTSVTVSS
VL: DIVLTQSPASLAVSLGQRATISCRASESVDSYGQSYMHWYQQKAGQPPKLLIYLASNLESGVPARFSGSGSRTDFTLTIDPVQAEDAATYYCQQNAEDSRTFGGGTKLEIKR
notes: also called IL13mAb-huIgG1
- koff [1]: 3.46e-05 s⁻¹
- kon [1]: 1.28e+06 M⁻¹ s⁻¹
- Kd [2]: 0.0269 nM

B2: anti-CD3ε-dsTrasKO2 × anti-CD123 (ID 38, alternative anti-CD3ε binding domain) (bispecific antibody, human IgG1, kappa, L234A L235A)
light 1: not shown
heavy 1: not shown
heavy 2: EVQLQQSGPELVKPGASVKMSCKASGYTFTDYYMKWVKQSHGKSLEWIGDIIPSNGATFYNQKFKGKATLTVDRSSSTAYMHLNSLTSEDSAVYYCTRSHLLRASWFAYWGQGTLVTVSAASTKGPSVFPLAPSSKSTSGGTAALGCLVKDYFPEPVTVSWNSGALTSGVHTFPAVLQSSGLYSLSSVVTVPSSSLGTQTYICNVNHKPSNTKVDKKVEPKSCDKTHTCPPCPAPEAAGGPSVFLFPPKPKDTLMISRTPEVTCVVVDVSHEDPEVKFNWYVDGVEVHNAKTKPREEQYNSTYRVVSVLTVLHQDWLNGKEYKCKVSNKALPAPIEKTISKAKGQPREPQVCTLPPSRDELTKNQVSLSCAVKGFYPSDIAVEWESNGQPENNYKTTPPVLDSDGSFFLVSKLTVDKSRWQQGNVFSCSVMHEALHNRFTQKSLSLSPG
light 2: DFVMTQSPSSLTVTAGEKVTMSCKSSQSLLNSGNQKNYLTWYLQKPGQPPKLLIYWASTRESGVPDRFTGSGSGTDFTLTISSVQAEDLAVYYCQNDYSYPYTFGGGTKLEIKRTVAAPSVFIFPPSDEQLKSGTASVVCLLNNFYPREAKVQWKVDNALQSGNSQESVTEQDSKDSTYSLSSTLTLSKADYEKHKVYACEVTHQGLSSPVTKSFNRGEC
- Kd [3]: 0.332 nM
- Cytotox EC50 (dead CFSE/7-AAD double positive THP-1 target cells; human pan T cells, effector:target 10:1, 20 h) [4]: 0.00095 nM

B3: anti-TNP-dsTrasKO2 × anti-CD123 Negative control (ID 44) (bispecific antibody, human IgG1, kappa, L234A L235A)
light 1: not shown
heavy 1: not shown
heavy 2: B2 heavy 2
light 2: B2 light 2
- Kd [3]: 0.287 nM

B4: dsTrasKO variant 1 (dsTrasKO1) (antibody, V domains shown)
VH: EVQLVESGGGLVQPGGSLRLSCAASGFNIKDTAIHWVRQAPGKCLEWVAEIYPTNGYTEYADSVKGRFTISADTSKNTAYLQMNSLRAEDTAVYYCSRWGGDGFAAMDYWGQGTLVTVSS
VL: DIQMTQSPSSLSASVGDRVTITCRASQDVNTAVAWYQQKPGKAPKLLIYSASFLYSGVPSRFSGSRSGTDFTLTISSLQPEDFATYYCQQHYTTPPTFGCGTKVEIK
notes: also called dsTrastuKO variant 1; Variant1 (TrasKO1) with VH44C/VL100C disulfide
- binding result [5]: no binding (tested: 100 nM)

B5: dsTrasKO variant 3 (dsTrasKO3) (antibody, V domains shown)
VH: B4 VH with E50R, E59R
VL: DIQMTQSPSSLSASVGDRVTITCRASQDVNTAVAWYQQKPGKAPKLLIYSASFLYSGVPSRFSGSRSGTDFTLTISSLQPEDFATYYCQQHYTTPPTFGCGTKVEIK
notes: also called dsTrastuKO variant 3; Variant3 (TrasKO3) with VH44C/VL100C disulfide
- binding result [5]: no binding (tested: 100 nM)

B6: dsTrasKO variant 2 (dsTrasKO2) (antibody, V domains shown)
VH: B4 VH with A33Y, A105Y
VL: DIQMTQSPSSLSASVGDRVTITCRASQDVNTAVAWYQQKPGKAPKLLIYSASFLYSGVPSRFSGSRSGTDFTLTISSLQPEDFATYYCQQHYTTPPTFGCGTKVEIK
notes: also called dsTrastuKO variant 2; Variant2 (TrasKO2) with VH44C/VL100C disulfide
- binding result [5]: no binding (tested: 100 nM)

B7: IL13 pseudo-IgG (ID 22) (antibody)
light: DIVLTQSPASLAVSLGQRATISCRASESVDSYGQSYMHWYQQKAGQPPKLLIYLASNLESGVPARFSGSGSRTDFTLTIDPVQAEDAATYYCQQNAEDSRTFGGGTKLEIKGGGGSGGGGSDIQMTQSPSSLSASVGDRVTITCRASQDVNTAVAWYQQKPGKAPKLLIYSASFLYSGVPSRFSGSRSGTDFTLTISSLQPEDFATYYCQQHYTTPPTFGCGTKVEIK
heavy: EVQLKESGPGLVAPGGSLSITCTVSGFSLTDSSINWVRQPPGKGLEWLGMIWGDGRIDYADALKSRLSISKDSSKSQVFLEMTSLRTDDTATYYCARDGYFPYAMDFWGQGTSVTVSSGGGGSGGGGSEVQLVESGGGLVQPGGSLRLSCAASGFNIKDTYIHWVRQAPGKCLEWVAEIYPTNGYTEYADSVKGRFTISADTSKNTAYLQMNSLRAEDTAVYYCSRWGGDGFYAMDYWGQGTLVTVSSDKTHTHHHHHH
notes: also called IL13 mAb Pseudo-IgG
- kon [1]: 1.54e+06 M⁻¹ s⁻¹
- binding result [6]: no binding (tested: 100 nM)
- koff [7]: 6.56e-07 s⁻¹
- Kd [2]: 0.000425 nM

B8: PD1 × IL13 bispecific (ID 26, anti-PD1-dsTrasKO2-Fc knob × anti-IL13-huIgG1 hole-RF) (bispecific antibody)
light 1: not shown
heavy 1: not shown
light 2: not shown
heavy 2: EVQLKESGPGLVAPGGSLSITCTVSGFSLTDSSINWVRQPPGKGLEWLGMIWGDGRIDYADALKSRLSISKDSSKSQVFLEMTSLRTDDTATYYCARDGYFPYAMDFWGQGTSVTVSSASTKGPSVFPLAPSSKSTSGGTAALGCLVKDYFPEPVTVSWNSGALTSGVHTFPAVLQSSGLYSLSSVVTVPSSSLGTQTYICNVNHKPSNTKVDKKVEPKSCDKTHTCPPCPAPELLGGPSVFLFPPKPKDTLMISRTPEVTCVVVDVSHEDPEVKFNWYVDGVEVHNAKTKPREEQYNSTYRVVSVLTVLHQDWLNGKEYKCKVSNKALPAPIEKTISKAKGQPREPQVCTLPPSRDELTKNQVSLSCAVKGFYPSDIAVEWESNGQPENNYKTTPPVLDSDGSFFLVSKLTVDKSRWQQGNVFSCSVMHEALHNRFTQKSLSLSPG
notes: PD1 arm is the pseudoFab (dsTrasKO2), IL13 arm the normal Fab
- koff [1]: 1.66e-05 s⁻¹
- kon [1]: 2.92e+06 M⁻¹ s⁻¹
- koff [8]: 0.0029 s⁻¹
- kon [8]: 131000 M⁻¹ s⁻¹
- Kd [2]: 0.00568 nM
- Kd [9]: 22.1 nM

B9: IL4 mAb (ID 18, anti-IL4-VL1-IGKC / anti-IL4-VH1-IgG1) (antibody, V domains shown)
VH: QVQLQQSGPELVKPGASVKISCKASGYSFTSYWIHWIKQRPGQGLEWIGMIDPSDGETRLNQRFQGRATLTVDESTSTAYMQLRSPTSEDSAVYYCTRLKEYGNYDSFYFDVWGAGTLVTVSS
VL: DIQMTQSPASLSVSVGDTITLTCHASQNIDVWLSWFQQKPGNIPKLLIYKASNLHTGVPSRFSGSGSGTGFTLTISSLQPEDIATYYCQQAHSYPFTFGGGTKLEIKR
notes: also called IL4mAb-huIgG1
- koff [10]: 0.000161 s⁻¹
- kon [10]: 1.04e+08 M⁻¹ s⁻¹
- Kd [11]: 0.00155 nM
